{
  "source": "patent US20040248202A1",
  "about": "“Bacteriorhodopsin/G protein-coupled receptor chimeras” (Wisconsin Alumni Research Foundation, priority 1998, published 2004)",
  "biological_target": "transducin (Homo sapiens, UniProt P11488)",
  "sequence (P11488 2-350 limits assumed)": "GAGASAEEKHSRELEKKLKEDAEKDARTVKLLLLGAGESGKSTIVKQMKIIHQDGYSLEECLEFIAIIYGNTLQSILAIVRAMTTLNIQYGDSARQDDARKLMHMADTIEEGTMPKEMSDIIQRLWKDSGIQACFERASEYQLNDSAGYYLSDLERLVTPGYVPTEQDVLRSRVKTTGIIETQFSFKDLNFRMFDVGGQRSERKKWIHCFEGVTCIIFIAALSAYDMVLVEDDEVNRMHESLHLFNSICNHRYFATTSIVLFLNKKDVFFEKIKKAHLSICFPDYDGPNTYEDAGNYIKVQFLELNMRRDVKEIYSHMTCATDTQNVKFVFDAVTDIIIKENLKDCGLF",
  "sequence (P62873 2-340 partner limits assumed)": "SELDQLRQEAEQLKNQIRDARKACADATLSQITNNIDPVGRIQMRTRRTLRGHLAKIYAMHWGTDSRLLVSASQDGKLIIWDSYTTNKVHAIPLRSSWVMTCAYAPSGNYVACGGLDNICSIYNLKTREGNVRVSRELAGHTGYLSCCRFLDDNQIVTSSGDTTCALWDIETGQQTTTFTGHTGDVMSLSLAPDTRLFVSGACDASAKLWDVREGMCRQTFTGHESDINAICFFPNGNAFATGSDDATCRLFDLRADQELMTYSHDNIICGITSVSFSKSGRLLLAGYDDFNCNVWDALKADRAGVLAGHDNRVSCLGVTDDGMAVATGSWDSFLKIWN",
  "sequence (P63211 2-71 partner limits assumed)": "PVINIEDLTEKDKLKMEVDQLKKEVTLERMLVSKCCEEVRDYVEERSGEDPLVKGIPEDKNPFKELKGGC",
  "assay": "GTPyS uptake assay: effect of BR-rhodopsin loop 3 chimeras on GDP-GTP exchange on transducin",
  "type": "biochemical",
  "description": "The ability of the chimeric protein to promote GTP-GDP exchange was evaluated for each of three BR-rhodopsin loop 3 chimeras by evaluating the effect of the chimera on the rate of GDP-GTP exchange on transducin using a GTPyS uptake assay, as described below.\nChimeric or bacteriorhodopsin protein (1.7 uM) was incubated with 0.8 uM holotransducin with 10 nM ^35S radiolabeled GTPyS in buffer (20 mM Hepes (pH 7.5), 5 mM MgCl2, 1 mM DTT, 0.1 mM EDTA, and 20 mM NaCl). The reaction was incubated at 30° C. for 5, 10, 15 or 30 minutes. The reaction was terminated by transferring aliquots of the reaction mixture to nitrocellulose filters (0.45 um) prewetted with wash buffer (10 mM Tris (pH 7.5), 5 mM MgCl2, 100 mM NaC1, 0.1 mM EDTA) and placed on a vacuum manifold. The filters were then washed with 8 ml of wash buffer. The filters were then placed overnight in scintillation vials filled with 20 ml of scintillation cocktail. The activity of the vials was counted by a Liquid Scintillation Counter. For the BR-Rhodopsin loop 3 chimeras, in which the rhodopsin intracellular loop 3 replaced the native BR intracellular loop 3 and was fused from T157 on BR TM 5 to V167 on BR TM 6, activity was determined by an increased uptake of GTPS over basal exchange by transducin alone.\nA time course study was next performed for Rhodopsin Insert Y223 to M253 (3C)\nThe following experiments repeated the study of GTPγS exchange with a new culture of the BR-Rhodopsin chimera for Rhodopsin Insert Y223 (3C) as well as three new chimeras.",
  "key": {"[1]": {"settings": "10 Minutes, new culture of 3C and three new chimeras"}},
  "data": [
    {"molecule": "3E: bacteriorhodopsin chimera, loop 3 replaced by bovine rhodopsin G224-M253; loop amino acid sequence SEQ ID NO:34 (protein) QAQITGRPEWIWLALGTALMGLGTLYFLVKGMGVSDPDAKKFYAITTLVPAIAFTMYLSMLLGYGLTMVPFGGEQNPIYWARYADWLFTTPLLLLDLALLVDADQGTILALVGADGIMIGTGLVGALTKVYSYRFVWWAISTAAMLYILYVLFFGFTGQLVFTVKEAAAQQQESATTQKAEKEVTRMVASTFKVLRNVTVVLWSAYPVVWLIGSEGAGIVPLNIETLLFMVLDVSAKVGFGLILLRSRAIFGEAEAPEPSAGDGAAATSD", "values": [
      {"measurement": "Activation (×100%) Over Basal Exchange", "setting": "[1]", "value": "1.46 ×100%"}
    ]},
    {"molecule": "3C: bacteriorhodopsin chimera, loop 3 replaced by bovine rhodopsin Y223-M253; loop amino acid sequence SEQ ID NO:30 (protein) QAQITGRPEWIWLALGTALMGLGTLYFLVKGMGVSDPDAKKFYAITTLVPAIAFTMYLSMLLGYGLTMVPFGGEQNPIYWARYADWLFTTPLLLLDLALLVDADQGTILALVGADGIMIGTGLVGALTKVYSYRFVWWAISTAAMLYILYVLFFGFTYGQLVFTVKEAAAQQQESATTQKAEKEVTRMVASTFKVLRNVTVVLWSAYPVVWLIGSEGAGIVPLNIETLLFMVLDVSAKVGFGLILLRSRAIFGEAEAPEPSAGDGAAATSD", "values": [
      {"measurement": "Activation (3C) (×10°) over Basal Exchange", "setting": "100 μM GDP, 10 Minutes", "value": 1.67, "unit": "×10°"},
      {"measurement": "Activation by 3C (×100%) Over Basal Exchange", "setting": "5 Minutes", "value": "1.56 ×100%"},
      {"measurement": "Activation by 3C (×100%) Over Basal Exchange", "setting": "10 Minutes", "value": "1.95 ×100%"},
      {"measurement": "Specific counts (Lattice Form)", "setting": "10 Minutes, 100 uM GDP", "value": 12577, "unit": "counts"},
      {"measurement": "Activation (×100%) Over Basal Exchange", "setting": "[1]", "value": "1.44 ×100%"},
      {"measurement": "Specific counts (Lattice Form)", "setting": "[1]", "value": 77125, "unit": "counts"},
      {"measurement": "Specific counts (Lattice Form)", "setting": "10 Minutes, no peptide (8 uM peptide experiment)", "value": 51423, "unit": "counts"},
      {"measurement": "SPECIFIC COUNTS: (Lattice Form)", "setting": "10 Minutes, no peptide (50 uM peptide experiment)", "value": 93448, "unit": "counts"},
      {"measurement": "Activation by 3C (×100%) Over Basal Exchange", "setting": "15 Minutes", "value": "1.97 ×100%"},
      {"measurement": "Specific counts (Lattice Form)", "setting": "time course, 5 min", "value": 26273, "unit": "counts"},
      {"measurement": "Specific counts (Lattice Form)", "setting": "time course, 10 min", "value": 51423, "unit": "counts"},
      {"measurement": "Specific counts (Lattice Form)", "setting": "time course, 15 min", "value": 66566, "unit": "counts"}
    ]},
    {"molecule": "3B: bacteriorhodopsin chimera, loop 3 replaced by bovine rhodopsin Y223-T251; loop amino acid sequence SEQ ID NO:28 (protein) QAQITGRPEWIWLALGTALMGLGTLYFLVKGMGVSDPDAKKFYAITTLVPAIAFTMYLSMLLGYGLTMVPFGGEQNPIYWARYADWLFTTPLLLLDLALLVDADQGTILALVGADGIMIGTGLVGALTKVYSYRFVWWAISTAAMLYILYVLFFGFTYGQLVFTVKEAAAQQQESATTQKAEKEVTVASTFKVLRNVTVVLWSAYPVVWLIGSEGAGIVPLNIETLLFMVLDVSAKVGFGLILLRSRAIFGEAEAPEPSAGDGAAATSD", "values": [
      {"measurement": "Activation (×100%) Over Basal Exchange", "setting": "[1]", "value": "1.17 ×100%"}
    ]},
    {"molecule": "3D: bacteriorhodopsin chimera, loop 3 replaced by bovine rhodopsin Q225-T251; loop amino acid sequence SEQ ID NO:32 (protein) QAQITGRPEWIWLALGTALMGLGTLYFLVKGMGVSDPDAKKFYAITTLVPAIAFTMYLSMLLGYGLTMVPFGGEQNPIYWARYADWLFTTPLLLLDLALLVDADQGTILALVGADGIMIGTGLVGALTKVYSYRFVWWAISTAAMLYILYVLFFGFTQLVFTVKEAAAQQQESATTQKAEKEVTVASTFKVLRNVTVVLWSAYPVVWLIGSEGAGIVPLNIETLLFMVLDVSAKVGFGLILLRSRAIFGEAEAPEPSAGDGAAATSD", "values": [
      {"measurement": "Activation (×100%) Over Basal Exchange", "setting": "[1]", "value": "1.0 ×100%"}
    ]}
  ]
}
